Assay results from the domain aggregation screens of Martell et al. (2025).

Assay: soluble fraction after stress (log2 fold change); higher = more stays soluble; pooled small domains, quantitative proteomics
Details: stress: 50 degC
How it was run: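 Quantitative proteomics served as the high-throughput read-out for pooled custom libraries of small protein domains. Each was stressed at 50°C. Aggregation propensity is expressed as the base-two log fold change in soluble protein after stress. A higher value means a larger share of the protein remains in solution.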

| Sequence | soluble fraction (log2) |
| --- | --- |
| HMGNGALLTLTVKERQVIQLVAEGKSNKQIARDLNVTPETIKSHMKNIFAKLKVDNRAQAAVMVQQ | -0.638 |
| HMGNGDTNERIATLMQILAKQESIINQYGLENPVVSPQMYVRTLKKVVELSGFKDASSYFADIPDGWKA | -0.00533 |
| HMGNIADARRDASYVFLIGEWAKSSNLTEKKLAGLIQSNHLDIKYGITVTDVIADIRKYKNDPTYNPF | -0.305 |
| HMGNIKVPSVMGMTLEGAEKVAKDNGAVIEVLEYKESTEEDGTIIEQSPKADMTVATLEKISVVISGK | -0.105 |
| HMGNIYKALLGKLEKQLGFLPEGTKLPPEQELAEKFGVSKPTLRRALAELAVRGIIVKQNGIGSVVAGS | -0.142 |
| HMGNKKLVLKLSKKLIKIPSFLNIYSVKLTKNGRELEINLDKSQNEAIDIINLIKKNNISFLEFDIKKR | -0.267 |
| HMGNLIIFYDAQTGSAPLLKAVKTSGATLVYEYKNLHGIAIRPSSKTSIEDAIAYFKKVNGVLSVE | -1.84 |
| HMGNPSGLPLPRFASTRSEPINVRVGPGQKYDIAWTYLKSGIPVEIIQEFDTWRKIRDFDGAEGWIHQNLL | -0.937 |
| HMGNSRNDQDLQTQIIKILAEGPASSRTLIETLTIEDEAALLKTLKRLLMNKKISLTPSNLYKL | -0.487 |
| HMGPAAGVVEKYNLAHLSTGEMIRKEIAEGSDFGKMAAGIINKGELLSDEFVVALIENSIEHHKNVDGFLF | -0.00841 |
| HMGPAVGAIRVEGNKRVEPETVRTYLTFNVGDPYDLAKVDESLKALFATGLFQDVRIRREGNTVVIVVVEN | -0.368 |
| HMGPAYQTQRQEAFAALSEIAAKNPQLMQVAGDLVFRAADFPMADELADRLAKTLPPQLQDKKGQP | -0.464 |
| HMGPEISEDAKVVFDRLKNHDEILLNNFKSEFDLSNKKWDKIIKELRGNDLISIIKSEDGNLFIKP | -0.00901 |
| HMGPELGENEKLIFDIIKKESKMELGILKAQVDLSNKKWDKALKGLATHGLTKVNKTDDGLFIELI | -0.095 |
| HMGPIITKTYNLSYATARDVNDIIKSKKSARGDIVIDTRTNSLIVSDVQEKIDLIDEIVATL | -0.27 |
| HMGPLSDRSVADWLLRLGLADTANNRLLLQVMHAAGLPLERTAVRAMRETAAGRPEGTDAREWLQAAAAAQ | -0.208 |
| HMGPNSVPDLRGKSLRQAMKMVNDLELKAIFEGEGIVVGQVPAPGKPVPETKILKITLSLEPY | -0.109 |
| HMGPPAVGSKLQDARKAQQLSLDELSKRAGVSKSMLSEVERNQANPTVGVLWRLATALGISLTDLLG | -0.374 |
| HMGPPLISLDDGLAKGFGVGVGDTLTINILGRRITATIASLREIDWQSLRFDFAVVLSPGVLEGA | 0.0913 |
| HMGPRKAGSEATRQKILDAAEILFAERGFHSVSVRDITTEAGVDVALINYHFGSKQLLFETVFMRR | -0.331 |
| HMGPRPLPAEFTHPSLRALLALGTTRGGVTSADVKTALEAASVPAGRRAAVLRALDDNGIEVHTEP | 0.0376 |
| HMGPSEVTLDNFVGKNYTDVVNDTSYQFTFKKEEKSDQTHAAGIIIAQSPKKGIKVKSNSTVTLTVSTG | -0.0626 |
| HMGPVDFYQMFISELQHLAEKPVTVDALIESTQLHKSQLTEWLKRAVDDGVVKKLNRPARFQVKNK | -0.029 |
| HMGPVRDLGLLESAAHRPTTALWGRDVYATIEKKAAALLDSLVRDRPLADGNKRLGWLAALV | 0.0437 |
| HMGPYGAGSAAPAEDGSGPEGWTVKGNAKSMLYHTEGSPYYGRTNADVWFRDEESAEAAGFRRWDRK | 0.0581 |

| Sequence | soluble fraction (log2) |
| --- | --- |
| HMGQAELPYSEFLREVNNGQVKSVIIEGSEITGFYKTSGTSFNVIAPDDPKLVERLMAQGVEVRAQPA | 0.0327 |
| HMGQDLEAFLLKAVGQLDQGDGVTLDALLKVAVSNGGFVREVAEAKLDDMLDAGTLDEPRFGWFRVGAT | -0.742 |
| HMGQDLSYYIKIVQNQQPVDPLTGEPKVLDYGEVIRQAQILQMLDTGDLDRDKAIGQLSMKDAL | 0.0152 |
| HMGQELRFVIQDHEAGIRLDHYLTQQVEGYSRSHLRKLMDQGLITVDGSYRKAGYRLNVGDVIHVVIPPTR | -0.443 |
| HMGQELTPVERTALDIAARDGKVSTRILAQEAGIGLRTASKTLAALAERGLLTWHGTSRRDPQQHYTS | 0.00201 |
| HMGQISDESVLKEMVVQLIADNPKEVASYLGGKETLLQWFMGQVARATKGKADPQAVKQLLLDEFEKLK | 0.092 |
| HMGQKETIVDLLKTNGTMTQLALAEAIYGDKNHGPNIYSVLMGRVNSGAVLRTGSQPAYYSLSG | 0.0821 |
| HMGQKMLTIELQEKVNKMPDNLASYDLKLSADGMSLIYKYSLKSERTGITALLQELKNAGLVMRDLKTEQ | -0.0274 |
| HMGQLSDREALTVLAREALVELPRAAGDYRNGRTAALQSLVGRVMRKTAGRGNPALLQEIFRSLL | -0.436 |
| HMGQLVVHQIKGEASRLDKFLVVNIPKYSRSVWREMINNGSVQVNGRVVKPHLLVKEGDIITWSS | -0.383 |
| HMGQLVYPAGVYDVNKSYITDSNSAPYVLDKTDNNYYVLNTQMTWKGTEQDNKTPSQSYEESGGSVWLLFD | -0.235 |
| HMGQPAVSSRDVAEQFGKEHRNVIQSIKNLIAENSALTFMFIEDTYTAGTGKKYPMYYMNRDGFTLLA | 0.224 |
| HMGQPGNWTSYVFKNSDTEPAKPTSSGPIPSGWNDAPTGVGIWWMSKATIDASTGKAGSWSTPIRVTGED | 0.0592 |
| HMGQSKNERMLELVELLNKASRSYYQDAQEIMSNYEYDRLYDELQNLEKELGITLSNSPTVN | -0.0536 |
| HMGQVSDETGLARVVDALLAAHPDEVAKYRAGKTSLLGWFMGQVMKETRGQANPDLARALVLERLE | -0.101 |
| HMGQYSTTLDKIENSLFGFTYSNEAENTRINRIENKVYGKTSTSQTSTRIAKLKKDLSVDEMG | 0.0362 |
| HMGREVVVPNLAGIEKEVALDLLKKNRLGGMITGTRFSSDFPAGQVIQQMPEAGSRVKVGKQVKLVLSEG | 0.323 |
| HMGRGSEDEQMRGLAVILAEQKQIMQTLGVENEVVKPEQYINTLKRMAELNGFKDTDQFFSIPQ | 0.339 |
| HMGRHSPLSIEQKEQLKTEIVALQQQRGGGRVTAVNIAELIQQKFNVVYNPNSLYKLLKQIGMSWV | -1.2 |
| HMGRKEIIVPNLLGKYAIEAGTILKNAGLLEGQAREENSDTYPAGQIMDQFPKANTPANENDKVDYVVSI | ≥ 0.62 |
| HMGRLEVDLVVPYDKYEAMNVIRAEGRILKEDHQGDGAHLKIQINETALWKLKRMLGEGYGQ | -0.157 |
| HMGRLPMNIVRAIVEHLDRHASYSEINRATGASKGFISKVAAAVEAASLTPEKFLLLNDEDIQNRITPGR | -0.234 |
| HMGRPTLEQLLDRAQAMGVPRERYAAYADRRWGRGWRVNPHGRGRAWDELDRYRNDPAGYLDKIEVELNQL | -0.101 |
| HMGRQVTVPNVTGMLVEEARAAISEAELWVDSPRAVQGEVTRQEPARGERLSPGQEVRIYTES | 0.31 |
| HMGRRSKAMLSSALDAVPGLGEMRRKALISQFGSLKKLRGATPEEIAAVPGIGPKLAAAVHEAVSG | 0.0505 |
